Target: human linker histone H1.4 (human, UniProt P10412 1-219)
Test: pull-down

Sequence of human linker histone H1.4 (P10412 whole entry): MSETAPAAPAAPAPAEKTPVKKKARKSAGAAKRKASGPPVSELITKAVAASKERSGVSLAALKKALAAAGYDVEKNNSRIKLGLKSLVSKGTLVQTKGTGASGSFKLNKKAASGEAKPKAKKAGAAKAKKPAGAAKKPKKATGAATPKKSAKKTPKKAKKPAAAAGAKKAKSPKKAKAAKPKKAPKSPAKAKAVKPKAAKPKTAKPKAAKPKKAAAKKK

binding result: binds
B1: His-tagged NAP1(160-312) (domain or fragment, human, UniProt P55209 160-312, looked up)
chain: EKEDPKGIPEFWLTVFKNVDLLSDMVQEHDEPILKHLKDIKVKFSDAGQPMSFVLEFHFEPNEYFTNEVLTKTYRMRSEPDDSDPFSFDGPEIMGCTGCQIDWKKGKNVTLKTIKKKQKHKGRGTVRTVTKTVSNDSFFNFFAPPEVPESGDL

— article PMC6598686 (Molecular cell, 2019)
